According to doi:10.1101/2023.06.21.546012 (bioRxiv, 2023):

B1: Tom22 with a C-terminal His10 tag (natural protein)
chain: MVELTEIKDDVVQLDEPQFSRNQAIVEEKASATNNDVVDDEDDSDSDFEDEFDENETLLDRIVALKDIVPPGKRQTISNFFGFTSSFVRNAFTKSGNLAWTLTTTALLLGVPLSLSILAEQQLIEMEKTFDLQSDANNILAQGEKDAAATAN
B2: Tom7 (natural protein)
chain: MSFLPSFILSDESKERISKILTLTHNVAHYGWIPFVLYLGWAHTSNRPNFLNLLSPLPSV
B3: Tom6 (natural protein)
chain: MDGMFAMPGAAAGAASPQQPKSRFQAFKESPLYTIALNGAFFVAGVAFIQSPLMDMLAPQL

What follows are binders tested against T1, Tom40 (S. cerevisiae (endogenous in the …, UniProt P23644 1-387)) (assay: cryo-EM structure).
T1 sequence: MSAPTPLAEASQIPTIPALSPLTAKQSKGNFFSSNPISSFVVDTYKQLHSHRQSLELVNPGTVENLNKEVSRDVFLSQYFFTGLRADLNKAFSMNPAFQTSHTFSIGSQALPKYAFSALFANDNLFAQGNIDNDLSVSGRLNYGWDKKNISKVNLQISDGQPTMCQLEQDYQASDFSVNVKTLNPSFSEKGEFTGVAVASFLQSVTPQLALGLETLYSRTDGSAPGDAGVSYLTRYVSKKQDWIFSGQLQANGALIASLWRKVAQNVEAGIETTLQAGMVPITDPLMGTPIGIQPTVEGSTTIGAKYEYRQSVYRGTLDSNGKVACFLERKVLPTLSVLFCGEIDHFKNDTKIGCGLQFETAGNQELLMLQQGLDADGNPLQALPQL

Binding result, binds:
MFGLPQQEVSEEEKRAHQEQTEKTLKQAAYVAAFLWVSPMIWHLVKKQWK (natural protein) [Tom5], B1, B2, B3
